± gives the uncertainty stated by the source.
B1: Receptor-interacting serine/threonine-protein kinase 2, residues 438 to 518; numbered along this chain, O43353 (parent)
chain: QWIQSKREDIVNQMTEACLNQSLDALLSRDLIMKEDYELVSTKPTRTSKVRQLLDTTDIQGEEFAKVIVQKLKDNKQMGLQ

Variants of: B1
Assay: abundance fitness (aPCA) (normalised: wild type 0, dead -1); higher = more abundant; growth selection in yeast, the domain comes from the species named
Details: Homo sapiens
For R46C, the abundance fitness was -0.285 ± 0.079.
R46M showed an abundance fitness of -0.411 ± 0.12.
R46I showed an abundance fitness of 0.007 ± 0.15.
Work on R46N yielded an abundance fitness of -0.288 ± 0.22.
With N75W the abundance fitness was -0.244 ± 0.083.
For N75L, the abundance fitness was -0.135 ± 0.054.
Work on N75H yielded an abundance fitness of -0.024 ± 0.095.
Variant N75C has an abundance fitness of -0.2 ± 0.084.
L23E showed an abundance fitness of -0.445 ± 0.21.
L23N showed an abundance fitness of -0.282 ± 0.23.
L23T showed an abundance fitness of -0.368 ± 0.12.
Work on L23K yielded an abundance fitness of -0.559 ± 0.3.
L23I gave an abundance fitness of -0.918 ± 0.49.
Variant L23M has an abundance fitness of -0.274 ± 0.2.
Work on S28P yielded an abundance fitness of -0.847 ± 0.18.
S28T showed an abundance fitness of -0.165 ± 0.12.
With S28R the abundance fitness was -0.082 ± 0.062.
Variant S28Q has an abundance fitness of 0.041 ± 0.11.
With S28E the abundance fitness was 0.03 ± 0.14.
With S28M the abundance fitness was -0.259 ± 0.11.
In the case of K43H, the abundance fitness is reported as -0.109 ± 0.28.
Work on K43G yielded an abundance fitness of -0.451 ± 0.049.
With K43S the abundance fitness was -0.46 ± 0.088.
K43L gave an abundance fitness of -0.008 ± 0.075.
L19T showed an abundance fitness of -0.112 ± 0.3.
For L19K, the abundance fitness was -0.884 ± 0.34.
Variant L19M has an abundance fitness of -0.306 ± 0.12.
L19V showed an abundance fitness of -0.25 ± 0.097.
Work on L19W yielded an abundance fitness of -1 ± 0.39.
L19G gave an abundance fitness of -0.502 ± 0.088.
Variant L26R has an abundance fitness of -0.425 ± 0.05.
With L26V the abundance fitness was -0.649 ± 0.069.
In the case of L26E, the abundance fitness is reported as -0.364 ± 0.11.
In the case of L26F, the abundance fitness is reported as -1.03 ± 0.25.
With S48I the abundance fitness was -0.923 ± 0.23.
For S48E, the abundance fitness was 0.542 ± 0.19.
S48Y showed an abundance fitness of -0.644 ± 0.21.
In the case of S48W, the abundance fitness is reported as -0.819 ± 0.13.
With S48L the abundance fitness was -0.04 ± 0.075.
In the case of S48A, the abundance fitness is reported as 0.072 ± 0.06.
With W2Q the abundance fitness was -0.411 ± 0.14.
With W2G the abundance fitness was -0.546 ± 0.084.
W2I gave an abundance fitness of 0.069 ± 0.43.
In the case of R51I, the abundance fitness is reported as -0.235 ± 0.079.
Variant R51S has an abundance fitness of -0.194 ± 0.047.
R51E showed an abundance fitness of -0.273 ± 0.12.
R51C showed an abundance fitness of -0.307 ± 0.066.
Work on R51A yielded an abundance fitness of -0.145 ± 0.055.
For R51K, the abundance fitness was -0.071 ± 0.18.
For E62W, the abundance fitness was -1.32 ± 0.3.
E62M gave an abundance fitness of -0.545 ± 0.1.
Work on E62P yielded an abundance fitness of -0.493 ± 0.049.
Variant E62H has an abundance fitness of -0.678 ± 0.13.
Work on E62D yielded an abundance fitness of -0.648 ± 0.23.
With I3D the abundance fitness was -0.051 ± 0.34.
I3K gave an abundance fitness of -0.975 ± 0.38.
Variant I3L has an abundance fitness of -0.205 ± 0.091.
Variant I3S has an abundance fitness of -0.767 ± 0.22.
In the case of L27C, the abundance fitness is reported as -0.668 ± 0.16.
L27M gave an abundance fitness of 0.128 ± 0.24.
Work on L27G yielded an abundance fitness of -0.609 ± 0.071.
Variant L27S has an abundance fitness of -0.104 ± 0.075.
Work on L27V yielded an abundance fitness of -0.067 ± 0.051.
L27K gave an abundance fitness of -0.041 ± 0.13.
Variant L27A has an abundance fitness of -0.251 ± 0.088.
Work on D9V yielded an abundance fitness of -0.172 ± 0.078.
For D9M, the abundance fitness was -0.328 ± 0.19.
D9Q gave an abundance fitness of -0.151 ± 0.077.
D9T showed an abundance fitness of -0.331 ± 0.098.
Work on D9G yielded an abundance fitness of -0.532 ± 0.092.
In the case of D9S, the abundance fitness is reported as -0.303 ± 0.07.
D9C showed an abundance fitness of -0.341 ± 0.19.
Variant D9K has an abundance fitness of -0.437 ± 0.15.
Variant D9N has an abundance fitness of -0.731 ± 0.27.
Variant D9P has an abundance fitness of -0.898 ± 0.15.
Q52M gave an abundance fitness of -0.42 ± 0.12.
Q52P gave an abundance fitness of -0.551 ± 0.079.
For Q52D, the abundance fitness was -0.526 ± 0.25.
In the case of E8C, the abundance fitness is reported as -0.994 ± 0.41.
Work on E8H yielded an abundance fitness of -0.884 ± 0.28.
Work on E8W yielded an abundance fitness of -0.918 ± 0.12.
D74N gave an abundance fitness of -0.345 ± 0.29.
D74G showed an abundance fitness of -0.336 ± 0.058.
D74S gave an abundance fitness of -0.323 ± 0.07.
Variant D74W has an abundance fitness of -0.488 ± 0.1.
For E38A, the abundance fitness was -0.129 ± 0.075.
E38Q showed an abundance fitness of -0.165 ± 0.12.
Variant E38L has an abundance fitness of -0.075 ± 0.076.
Variant E38N has an abundance fitness of -0.463 ± 0.13.
L53P gave an abundance fitness of -0.423 ± 0.064.
For L53I, the abundance fitness was -0.544 ± 0.16.
For L53N, the abundance fitness was -0.845 ± 0.22.
For L53D, the abundance fitness was -0.689 ± 0.21.
L53C gave an abundance fitness of -0.433 ± 0.12.
In the case of L53T, the abundance fitness is reported as -0.417 ± 0.092.
For L53V, the abundance fitness was -0.56 ± 0.085.
With L53Y the abundance fitness was -0.821 ± 0.18.
L53S gave an abundance fitness of -0.679 ± 0.086.
With I10G the abundance fitness was -0.764 ± 0.11.
Work on N12Y yielded an abundance fitness of -0.382 ± 0.4.
In the case of N12R, the abundance fitness is reported as -0.008 ± 0.059.
Variant N12S has an abundance fitness of -0.213 ± 0.071.
N12G showed an abundance fitness of -0.162 ± 0.065.
For Q1R, the abundance fitness was -0.389 ± 0.47.
For A65T, the abundance fitness was -0.85 ± 0.12.
A65N showed an abundance fitness of -0.389 ± 0.18.
With A65R the abundance fitness was -0.649 ± 0.077.
In the case of A65K, the abundance fitness is reported as -0.708 ± 0.17.
Variant A65S has an abundance fitness of -0.457 ± 0.062.
Variant D24R has an abundance fitness of -0.169 ± 0.057.
With D24F the abundance fitness was -0.779 ± 0.22.
In the case of D24C, the abundance fitness is reported as -0.337 ± 0.15.
Variant A25I has an abundance fitness of -0.339 ± 0.14.
With A25L the abundance fitness was -0.303 ± 0.063.
With A25H the abundance fitness was -0.225 ± 0.16.
Work on A25N yielded an abundance fitness of -0.343 ± 0.062.
V69H gave an abundance fitness of -0.508 ± 0.25.
Variant V69F has an abundance fitness of -0.057 ± 0.13.
V69L gave an abundance fitness of -0.286 ± 0.093.
Work on Q21R yielded an abundance fitness of -0.286 ± 0.051.
With Q21C the abundance fitness was -0.475 ± 0.12.
In the case of Q21D, the abundance fitness is reported as 0.183 ± 0.11.
Work on Q21Y yielded an abundance fitness of -0.313 ± 0.22.
With K34G the abundance fitness was -0.357 ± 0.091.
For K34M, the abundance fitness was -0.312 ± 0.16.
With K34V the abundance fitness was -0.242 ± 0.13.
Work on K34C yielded an abundance fitness of -0.199 ± 0.22.
For K34H, the abundance fitness was -0.528 ± 0.17.
For K34P, the abundance fitness was 0.024 ± 0.066.
Work on K34R yielded an abundance fitness of -0.124 ± 0.063.
With K34W the abundance fitness was -0.243 ± 0.092.
T56D gave an abundance fitness of -0.849 ± 0.24.
In the case of L39G, the abundance fitness is reported as -0.34 ± 0.056.
In the case of L39H, the abundance fitness is reported as -0.107 ± 0.081.
Variant L39K has an abundance fitness of 0.119 ± 0.19.
L39F showed an abundance fitness of -0.436 ± 0.09.
L39V gave an abundance fitness of -0.199 ± 0.079.
For L39C, the abundance fitness was -0.379 ± 0.1.
For L39N, the abundance fitness was -0.034 ± 0.17.
Variant D30L has an abundance fitness of -0.615 ± 0.081.
For D30A, the abundance fitness was -0.106 ± 0.072.
In the case of D30Y, the abundance fitness is reported as -0.84 ± 0.21.
D30V showed an abundance fitness of -0.657 ± 0.12.
For D55T, the abundance fitness was -0.313 ± 0.071.
Work on D55Y yielded an abundance fitness of -0.445 ± 0.071.
D55R gave an abundance fitness of -0.162 ± 0.046.
Variant D55H has an abundance fitness of -0.665 ± 0.16.
Variant D55V has an abundance fitness of -0.27 ± 0.065.
Variant K66I has an abundance fitness of -0.757 ± 0.21.
For K66V, the abundance fitness was -0.702 ± 0.074.
Variant K66L has an abundance fitness of -0.555 ± 0.062.
With K66F the abundance fitness was -1.05 ± 0.47.
For K76F, the abundance fitness was -0.207 ± 0.14.
K76Y gave an abundance fitness of -0.272 ± 0.15.
K76E showed an abundance fitness of -0.19 ± 0.14.
Variant K76A has an abundance fitness of 0.008 ± 0.087.
K76T showed an abundance fitness of -0.093 ± 0.1.
Work on K76N yielded an abundance fitness of -0.203 ± 0.35.
For Q81H, the abundance fitness was -0.419 ± 0.19.
Variant N20S has an abundance fitness of -0.043 ± 0.11.
Variant N20A has an abundance fitness of -0.048 ± 0.21.
In the case of N20Y, the abundance fitness is reported as 0.112 ± 0.2.
For N20H, the abundance fitness was 0.119 ± 0.38.
Y37H gave an abundance fitness of -0.568 ± 0.23.
Y37C showed an abundance fitness of -0.547 ± 0.21.
Y37A showed an abundance fitness of -0.084 ± 0.067.
Variant Y37K has an abundance fitness of -0.412 ± 0.19.
